Where no end group is shown, it is not given here.
Each binder was assayed against T1, recombinant HLA-A*0201 molecule (HLA-A*0201 heavy chain refolded with beta-2 microglobulin) (human) (assay: remark on making pMHC monomers for in vitro stimulation).

| binding result | Binder |
| --- | --- |
| binds | STAPPVHNV [IMA-MUC-001] |

The binders below were run against T1, recombinant HLA-A*0201 molecule … (assay: ELISA-based HLA refolding assay: recombinant HLA-A*0201 heavy chain with b2m and graded doses of peptide).
Experimental: (§1) The amount of de novo-folded HLA/peptide complexes was determined by a quantitative ELISA. Dissociation constants (KD values) were calculated using a standard curve recorded from dilutions of a calibrant HLA/peptide complex.

| Kd [nM] | Binder |
| --- | --- |
| 0.001 | ALFVRLLALA [IMA-TGFBI-001] |
| 0.2 | ILDQKINEV [IMA-ODC-001] |

What follows are binders tested against T1, recombinant HLA-A*0201 molecule … (assay: ELISA-based HLA refolding assay).
Experimental: as §1

| binding result | Binder |
| --- | --- |
| binds | KLMDLDVEQL [IMA-PCN-001] |
| binds | KIFDEILVNA [IMA-TOP-001] |
| binds | YVDPVITSI [IMA-MET-001] |
| binds | LLGATCMFV [IMA-CCN-001] |
| binds | ILAPVILYI [IMA-NOX-001] |
| binds | ALSNLEVTL (also: acetate salt) [IMA-C20-001] |

— patent US20090148400A1 (IMMATICS BIOTECHNOLOGIES GMHH, published 2009)
